Laboratory results published in paper PMC11989107, “Biochemical and Structural Characterization of a Highly Glucose-Tolerant β-Glucosidase from the Termite Reticulitermes perilucifugus” (International Journal of Molecular Sciences, 2025).

Tested on: O=[N+]([O-])c1ccc(O[C@@H]2O[C@H](CO)[C@@H](O)[C@H](O)[C@H]2O)cc1
Test: purified protein
Conditions: 37 °C, 20 mM phosphate buffer pH 7.0, 1-20 mM pNPG

Chain of RpBgl8 (Reticulitermes perilucifugus) (chain, as listed by the source): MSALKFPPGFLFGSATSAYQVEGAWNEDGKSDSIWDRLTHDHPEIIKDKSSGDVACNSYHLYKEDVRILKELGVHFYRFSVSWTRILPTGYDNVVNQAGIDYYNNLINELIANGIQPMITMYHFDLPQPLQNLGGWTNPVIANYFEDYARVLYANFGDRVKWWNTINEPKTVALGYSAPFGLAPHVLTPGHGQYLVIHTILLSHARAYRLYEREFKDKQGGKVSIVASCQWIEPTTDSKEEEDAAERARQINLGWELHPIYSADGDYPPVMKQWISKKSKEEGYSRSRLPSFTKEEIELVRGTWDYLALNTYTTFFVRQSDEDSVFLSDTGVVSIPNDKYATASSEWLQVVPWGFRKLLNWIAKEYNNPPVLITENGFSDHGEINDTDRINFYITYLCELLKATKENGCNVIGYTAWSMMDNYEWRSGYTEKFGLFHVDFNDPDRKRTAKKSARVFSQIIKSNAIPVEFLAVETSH

Substance: RpBgl8 (Reticulitermes perilucifugus)
- Km: 5.4 mM
- kcat: 0.17 s⁻¹
